Source: EP2390325A1, “FLAVONOID-3-GLUCURONYLTRANSFERASE AND POLYNUCLEOTIDE ENCODING SAME” (Suntory Holdings Limited, priority 2009, dated 2010)

Experiments:
VvGT5 [1] = molecular target: T1, VvGT5 (Vitis vinifera, UniProt C7G3B5); experiment: Glycosyl acceptor specificity of VvGT5, product amount by HPLC; format: biochemical; conditions: 100 µM glycosyl acceptor, 1 mM UDP-glucuronic acid, pH 9.5, 30°C, 15 minutes
T1 sequence (C7G3B5 1-459): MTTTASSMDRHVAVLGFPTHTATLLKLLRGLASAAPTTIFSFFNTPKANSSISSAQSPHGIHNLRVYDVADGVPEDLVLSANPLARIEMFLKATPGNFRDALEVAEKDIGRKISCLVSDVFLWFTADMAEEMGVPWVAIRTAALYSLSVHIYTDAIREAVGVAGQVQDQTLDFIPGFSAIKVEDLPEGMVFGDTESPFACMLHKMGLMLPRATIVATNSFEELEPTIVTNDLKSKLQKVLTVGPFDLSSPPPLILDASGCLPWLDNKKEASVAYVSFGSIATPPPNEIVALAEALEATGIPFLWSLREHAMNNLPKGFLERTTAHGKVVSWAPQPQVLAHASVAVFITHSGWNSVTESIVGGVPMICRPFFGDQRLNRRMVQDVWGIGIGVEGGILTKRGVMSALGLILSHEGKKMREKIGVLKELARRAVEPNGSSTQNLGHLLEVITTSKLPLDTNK
Description: Next, the glycosyl acceptor specificity of this enzyme was examined. […] The reaction was started by adding the glycosyl acceptor. The reaction was stopped by adding an equal volume of 40% acetonitrile solution containing 0.1% TFA. After the reaction was stopped, the solution was centrifuged (15000 rpm, 2 mins., 4°C) and 100 µl of the resulting supernatant was provided for the HPLC analysis. The amounts of the products produced were compared for each glycosyl acceptor.
Anthocyanins were analyzed under the conditions below using the HPLC system described above. Conditions for the HPLC analysis of anthocyanins were as follows. Asahipak ODP-50 4E (4.6 x 250 mm, Showa Denko K.K.) as a column was used at room temperature. Moving phase A (0.5% TFA/H2O) and moving phase B (0.5% TFA/50% GH3CN) were used. Conditions for elution were as follows: Equilibration was performed with B30% for 3 minutes, followed by linear density gradients (B30%→B65%) for 15 minutes and (B65%→B100%) for further 1 minute, which was maintained for 5 minutes at B100%. Thereafter, the condition was again reverted to B30% to equilibrate for 10 minutes. The flow rate was 0.7 ml/min. Detection was performed at 520 nm. Under the conditions, standard pelargonidin, cyanidin and delphinidin were sequentially eluted in this order at retention times of approximately […], respectively.

VvGT5 [2] = molecular target: T1, VvGT5; experiment: Glycosyl donor specificity of VvGT5, product amount by HPLC; format: biochemical; conditions: 100 µM quercetin, 1 mM glycosyl donor, pH 9.5, 30°C, 15 minutes
Description: Next, the glycosyl donor specificity of this enzyme was examined. […] The reaction was started by adding the glycosyl acceptor. The reaction was stopped by adding an equal volume of 40% acetonitrile solution containing 0.1% TFA. After the reaction was stopped, the solution was centrifuged (15000 rpm, 2 mins., 4°C) and 100 µl of the resulting supernatant was provided for the HPLC analysis. The amounts of the products produced in the respective glycosyl donors were compared.

[3] = substrate: O=c1c(O)c(-c2ccc(O)cc2)oc2cc(O)cc(O)c12; experiment: Kinetic analysis of VvGT5 (Km, kcat); format: biochemical, Vitis vinifera; conditions: other: glycosyl acceptor substrate; purified His-tagged VvGT5; pH 9.5; 30.0 °C
[4] = substrate: COc1cc(-c2oc3cc(O)cc(O)c3c(=O)c2O)ccc1O; experiment: Kinetic analysis of VvGT5 (Km, kcat); format: biochemical, Vitis vinifera; conditions: other: glycosyl acceptor substrate; purified His-tagged VvGT5; pH 9.5; 30.0 °C
[5] = substrate: O=c1c(O)c(-c2ccc(O)c(O)c2)oc2cc(O)cc(O)c12; experiment: Kinetic analysis of VvGT5 (Km, kcat); format: biochemical, Vitis vinifera; conditions: other: glycosyl acceptor substrate; purified His-tagged VvGT5; pH 9.5; 30.0 °C
[6] = substrate: O=C(O)[C@H]1O[C@H](OP(=O)(O)OP(=O)(O)OC[C@H]2O[C@@H](n3ccc(=O)[nH]c3=O)[C@H](O)[C@@H]2O)[C@H](O)[C@@H](O)[C@@H]1O; experiment: purified protein, by the assay type; conditions: other: glycosyl donor; purified His-tagged VvGT5; pH 9.5; 30.0 °C

`O=c1c(O)c(-c2ccc(O)c(O)c2)oc2cc(O)cc(O)c12` [quercetin] was tested, and the “activity of VvGT5 on glycosyl acceptor” value (VvGT5 [1]) was “highest activity”.

For `O=C(O)[C@H]1O[C@H](OP(=O)(O)OP(=O)(O)OC[C@H]2O[C@@H](n3ccc(=O)[nH]c3=O)[C@H](O)[C@@H]2O)[C@H](O)[C@@H](O)[C@@H]1O` [UDP-glucuronic acid], the “product formation with glycosyl donor” value (VvGT5 [2]) was “the product was obtained only when UDP-glucuronic acid was used as the substrate”.

B1: VvGT5 (Vitis vinifera) (protein)
chain: MTTTASSMDRHVAVLGFPTHTATLLKLLRGLASAAPTTIFSFFNTPKANSSISSAQSPHGIHNLRVYDVADGVPEDLVLSANPLARIEMFLKATPGNFRDALEVAEKDIGRKISCLVSDVFLWFTADMAEEMGVPWVAIRTAALYSLSVHIYTDAIREAVGVAGQVQDQTLDFIPGFSAIKVEDLPEGMVFGDTESPFACMLHKMGLMLPRATIVATNSFEELEPTIVTNDLKSKLQKVLTVGPFDLSSPPPLILDASGCLPWLDNKKEASVAYVSFGSIATPPPNEIVALAEALEATGIPFLWSLREHAMNNLPKGFLERTTAHGKVVSWAPQPQVLAHASVAVFITHSGWNSVTESIVGGVPMICRPFFGDQRLNRRMVQDVWGIGIGVEGGILTKRGVMSALGLILSHEGKKMREKIGVLKELARRAVEPNGSSTQNLGHLLEVITTSKLPLDTNK
Work on B1 yielded a Km [3] of 10.8 ± 0.4 µM, a kcat [3] of 6.05 ± 0.05 s⁻¹ and a Km [4] of 7.92 ± 0.32 µM. For the same molecule, the kcat [4] was 0.413 ± 0.03 s⁻¹, the Km [5] was 5.60 ± 1.76 µM and the kcat [5] was 7.16 ± 0.37 s⁻¹. It also gave a Km [6] of 17.7 µM.
